To fix the notation:
B1: coiled-coil PlexinA1_(cyto) fusion with the 1-residue linker (other)
chain: VKQLEDKVEELLSKNAHLENEVARLKKLVGSRDADRTLKRLQLQMDNLESRVALECKEAFAELQTDIHELTSDLDGAGIPFLDYRTYAMRVLFPGIEDHPVLKEMEVQANVEKSLTLFGQLLTKKHFLLTFIRTLEAQRSFSMRDRGNVASLIMTALQGEMEYATGVLKQLLSDLIEKNLESKNHPKLLLRRTESVAEKMLTNWFTFLLYKFLKECAGEPLFMLYCAIKQQMEKGPIDAITGEARYSLSEDKLIRQQIDYKTLTLNCVNPEHENAPEVPVKGLNCDTVTQVKEKLLDAVYKGVPYSQRPKAGDMDLEWRQGRMARIILQDEDVTTKIDNDWKRLNTLAHYQVTDGSSVALVPKQTSAYNISNSSTFTKSLSRYESMLRTASSPDSLRSRTPMITPDLESGTKLWHLVKNHDHLDQREGDRGSKMVSEIYLTRLLATKGTLQKFVDDLFETIFSTAHRGSALPLAIKYMFDFLDEQADKHQIHDSDVRHTWKSNCLPLRFWVNVIKNPQFVFDIHKNSITDACLSVVAQTFMDSCSTSEHKLGKDSPSNKLLYAKDIPNYKSWVERYYADIAKMPAISDQDMSAYLAEQSRLHLSQFNSMSALHEIYSYIAKYKDEILVALEKDEQARRQRLRSKLEQVVDTMALSS
B2: coiled-coil PlexinA1_(cyto) fusion with the 7-residue linker (other)
chain: VKQLEDKVEELLSKNAHLENEVARLKKLVGSSGSSGSRDADRTLKRLQLQMDNLESRVALECKEAFAELQTDIHELTSDLDGAGIPFLDYRTYAMRVLFPGIEDHPVLKEMEVQANVEKSLTLFGQLLTKKHFLLTFIRTLEAQRSFSMRDRGNVASLIMTALQGEMEYATGVLKQLLSDLIEKNLESKNHPKLLLRRTESVAEKMLTNWFTFLLYKFLKECAGEPLFMLYCAIKQQMEKGPIDAITGEARYSLSEDKLIRQQIDYKTLTLNCVNPEHENAPEVPVKGLNCDTVTQVKEKLLDAVYKGVPYSQRPKAGDMDLEWRQGRMARIILQDEDVTTKIDNDWKRLNTLAHYQVTDGSSVALVPKQTSAYNISNSSTFTKSLSRYESMLRTASSPDSLRSRTPMITPDLESGTKLWHLVKNHDHLDQREGDRGSKMVSEIYLTRLLATKGTLQKFVDDLFETIFSTAHRGSALPLAIKYMFDFLDEQADKHQIHDSDVRHTWKSNCLPLRFWVNVIKNPQFVFDIHKNSITDACLSVVAQTFMDSCSTSEHKLGKDSPSNKLLYAKDIPNYKSWVERYYADIAKMPAISDQDMSAYLAEQSRLHLSQFNSMSALHEIYSYIAKYKDEILVALEKDEQARRQRLRSKLEQVVDTMALSS
B3: CC-L4-PlexinA1_(cyto) (other)
chain: VKQLEDKVEELLSKNAHLENEVARLKKLVGSSGSRDADRTLKRLQLQMDNLESRVALECKEAFAELQTDIHELTSDLDGAGIPFLDYRTYAMRVLFPGIEDHPVLKEMEVQANVEKSLTLFGQLLTKKHFLLTFIRTLEAQRSFSMRDRGNVASLIMTALQGEMEYATGVLKQLLSDLIEKNLESKNHPKLLLRRTESVAEKMLTNWFTFLLYKFLKECAGEPLFMLYCAIKQQMEKGPIDAITGEARYSLSEDKLIRQQIDYKTLTLNCVNPEHENAPEVPVKGLNCDTVTQVKEKLLDAVYKGVPYSQRPKAGDMDLEWRQGRMARIILQDEDVTTKIDNDWKRLNTLAHYQVTDGSSVALVPKQTSAYNISNSSTFTKSLSRYESMLRTASSPDSLRSRTPMITPDLESGTKLWHLVKNHDHLDQREGDRGSKMVSEIYLTRLLATKGTLQKFVDDLFETIFSTAHRGSALPLAIKYMFDFLDEQADKHQIHDSDVRHTWKSNCLPLRFWVNVIKNPQFVFDIHKNSITDACLSVVAQTFMDSCSTSEHKLGKDSPSNKLLYAKDIPNYKSWVERYYADIAKMPAISDQDMSAYLAEQSRLHLSQFNSMSALHEIYSYIAKYKDEILVALEKDEQARRQRLRSKLEQVVDTMALSS

This data set concerns the molecule itself. Kind of data set: SEC.
For the protein B1, the binding result is reported as “binds”. In the case of B2, the binding result is “binds”. Under B3 stands “binds”.

The values above are taken from publication PMC3413289 (Science signaling, 2012).
